Measurements taken from patent US20230218743A1 (IMMUNITYBIO, published 2023).
Where a chain is given by its changes, count along the chain named. Like-named read-outs stand apart in the source and are kept apart here.

Assays:
[1] = biological target: SARS-CoV-2 Spike protein on live SARS-CoV-2 (SARS-CoV-2, UniProt P0DTC2 14-1273); experiment: cell-based or functional assay
[2] = biological target: T1, RBD-SD1 (SARS-CoV-2, UniProt P0DTC2 319-591); experiment: epitope analysis, FIG. 4B
[3] = biological target: T1, RBD-SD1
[4] = biological target: T1, RBD-SD1; remark: listed apart in the source
[5] = biological target: T2, SARS-CoV-2 Spike receptor binding domain, wild-type (SARS-CoV-2, UniProt P0DTC2 319-541); experiment: Octet, IgG1 on AHC biosensor
T2 construct: domain: RBD

[6] = biological target: T1, RBD-SD1; experiment: Octet, IgG1 on AHC biosensor
[7] = biological target: T1, RBD-SD1; remark: listed apart in the source

B1: N-612-017 (antibody, V domains shown)
VH: EVQLVESGGGLVQPGGSLRLSCAASGFTFSSYAMHWVRQAPGKGLEWVSAIWGSGSNTYYADSVKGRFTISRDNSKNTLYLQMNSLRAEDTAVYYCARGRDLAAFTKTAFDVWGQGTLVTVSS
VL: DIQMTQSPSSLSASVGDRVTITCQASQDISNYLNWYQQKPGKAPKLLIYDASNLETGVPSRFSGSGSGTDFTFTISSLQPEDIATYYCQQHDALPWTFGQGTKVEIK
live SARS-CoV-2 neutralization IC50 [1]: 0.0756 µg/mL
koff [2]: 0.0019 s⁻¹
Kd [3]: 6.19 nM
koff [3]: 0.00627 s⁻¹
kon [3]: 1.01e+06 M⁻¹ s⁻¹

B2: 612-017 (scFv, V domains shown)
VH: B1 VH
VL: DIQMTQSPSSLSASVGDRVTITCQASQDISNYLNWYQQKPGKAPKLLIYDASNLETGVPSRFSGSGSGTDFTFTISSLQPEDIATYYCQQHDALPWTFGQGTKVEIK
Kd [4]: 10.2 nM

B3: N-612-044 (antibody, V domains shown)
VH: EVQLVESGGGLVQPGGSLRLSCAASGFTFSNYAMHWVRQAPGKGLEWVSAISGSGGSTYYADSVKGRFTISRDNSKNTLYLQMNSLRAEDTAVYYCARDLSFWLTYHLASAFDVWGQGTLVTVSS
VL: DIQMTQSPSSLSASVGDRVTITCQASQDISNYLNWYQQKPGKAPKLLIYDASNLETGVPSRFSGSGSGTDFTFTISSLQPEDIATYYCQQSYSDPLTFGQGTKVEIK
binding result [5]: no binding (tested: 2x dilution series starting at 100 nM)
binding result [6]: no binding (tested: 2x dilution series starting at 100 nM)

B4: N-612-004 (antibody, V domains shown)
VH: EVQLVESGGGLVQPGGSLRLSCAASGFTFSSYYMHWVRQAPGKGLEWVSAISGSGGYTYYADSVKGRFTISRDNSKNTLYLQMNSLRAEDTAVYYCARDRDHAYDWGFDVWGQGTLVTVSS
VL: DIQMTQSPSSLSASVGDRVTITCQASQDISNYLNWYQQKPGKAPKLLIYDASNLETGVPSRFSGSGSGTDFTFTISSLQPEDIATYYCQQWADWPLTFGQGTKVEIK
live SARS-CoV-2 neutralization IC50 [1]: 0.194 µg/mL

B5: N-612-056 (antibody, V domains shown)
VH: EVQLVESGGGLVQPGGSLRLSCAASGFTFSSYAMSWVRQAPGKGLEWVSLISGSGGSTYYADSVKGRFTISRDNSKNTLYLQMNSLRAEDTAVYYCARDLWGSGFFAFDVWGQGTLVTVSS
VL: B4 VL with W91D, D93G, W94T
live SARS-CoV-2 neutralization IC50 [1]: 0.855 µg/mL

B6: 612-056 (scFv, V domains shown)
VH: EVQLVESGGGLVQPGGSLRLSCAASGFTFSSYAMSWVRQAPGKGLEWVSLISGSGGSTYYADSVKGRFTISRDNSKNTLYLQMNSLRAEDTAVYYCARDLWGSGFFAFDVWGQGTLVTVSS
VL: B4 VL with W91D, D93G, W94T
Kd [7]: 4.77 nM

B7: N-612-014 (antibody, V domains shown)
VH: EVQLVESGGGLVQPGGSLRLSCAASGFTFSSYAMTWVRQAPGKGLEWVSYISGSGGGTYYADSVKGRFTISRDNSKNTLYLQMNSLRAEDTAVYYCARDRWASGWLAFDVWGQGTLVTVSS
VL: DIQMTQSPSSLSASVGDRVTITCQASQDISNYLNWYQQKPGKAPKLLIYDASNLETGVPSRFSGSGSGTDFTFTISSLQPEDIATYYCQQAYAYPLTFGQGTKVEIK
live SARS-CoV-2 neutralization IC50 [1]: 0.00791 µg/mL
binding result [5]: no binding (tested: 2x dilution series starting at 100 nM)
binding result [6]: no binding (tested: 2x dilution series starting at 100 nM)

B8: N-612-002 (antibody, V domains shown)
VH: EVQLVESGGGLVQPGGSLRLSCAASGFTFSSYTMHWVRQAPGKGLEWVSAISGSGGSTYYADSVKGRFTISRDNSKNTLYLQMNSLRAEDTAVYYCARDLFDFWGFDVWGQGTLVTVSS
VL: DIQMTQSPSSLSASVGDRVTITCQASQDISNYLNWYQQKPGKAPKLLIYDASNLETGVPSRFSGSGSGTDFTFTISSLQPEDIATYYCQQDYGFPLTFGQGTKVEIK
binding result [5]: no binding (tested: 2x dilution series starting at 100 nM)
binding result [6]: no binding (tested: 2x dilution series starting at 100 nM)

B9: N-612-007 (antibody, V domains shown)
VH: EVQLVESGGGLVQPGGSLRLSCAASGFTFSNYAMHWVRQAPGKGLEWVSAISGNGGSTGYADSVKGRFTISRDNSKNTLYLQMNSLRAEDTAVYYCARDRWYVKNAFDVWGQGTLVTVSS
VL: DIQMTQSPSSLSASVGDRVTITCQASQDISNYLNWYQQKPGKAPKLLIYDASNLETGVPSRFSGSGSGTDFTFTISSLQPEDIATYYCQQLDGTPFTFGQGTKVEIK
live SARS-CoV-2 neutralization IC50 [1]: 0.0452 µg/mL
binding result [5]: no binding (tested: 2x dilution series starting at 100 nM)
binding result [6]: no binding (tested: 2x dilution series starting at 100 nM)
